B1: IL22-Fc fusion biotherapeutic (UTTR1147A) [modified: N-linked glycans with sialic acid; 8 N-linked glycosylation sites in the dimer (N21, N35, N64, N143 on each chain); N-linked glycans with sialic acid; 8 N-linked … (parent)
chain 1: APISSHCRLDKSNFQQPYITNRTFMLAKEASLADNNTDVRLIGEKLFHGVSMSERCYLMKQVLNFTLEEVLFPQSDRFQPYMQEVVPFLARLSNRLSTCHIEGDDLHIQRNVQKLKDTVKKLGESGEIKAIGELDLLFMSLRNACI
chain 2: HAPEDPSDLLQHVKFQSSNFENILTWDSGPEGTPDTVYSIEYKTYGERDWVAKKGCQRITRKSCNLTVETGNLTELYYARVTAVSAGGRSATKMTDRFSSLQHTTLKPPDVTCISKVRSIQMIVHPTPTPIRAGDGHRLTLEDIFHDLFYHLELQVNRTYQMHLGGKQREYEFFGLTPDTEFLGTIMICVPTWAKESAPYMCRVKTLPDRTWT

Variants of: B1
Assay: relative potency assay (method not named for this panel; measured in duplicate)
Conditions: with IL-22 RA1 extracellular domain (ECD)

Row | Variant | ratio to parent
1 | chain 1 APISSHCRLDKSNFQQPYITNRTFMLAKEASLADQNTDVRLIGEKLFHGVSMSERCYLMKQVLNFTLEEVLFPQSDRFQPYMQEVVPFLARLSNRLSTCHIEGDDLHIQRNVQKLKDTVKKLGESGEIKAIGELDLLFMSLRNACI [chain 1 N35Q] | 1.54
2 | chain 1 APISSHCRLDKSNFQQPYITNRTFMLAKEASLADNNTDVRLIGEKLFHGVSMSERCYLMKQVLNFTLEEVLFPQSDRFQPYMQEVVPFLARLSNRLSTCHIEGDDLHIQRNVQKLKDTVKKLGESGEIKAIGELDLLFMSLRQACI [chain 1 N143Q] | 0.83
3 | chain 1 APISSHCRLDKSNFQQPYITNRTFMLAKEASLADNNTDVRLIGEKLFHGVSMSERCYLMKQVLQFTLEEVLFPQSDRFQPYMQEVVPFLARLSNRLSTCHIEGDDLHIQRNVQKLKDTVKKLGESGEIKAIGELDLLFMSLRNACI [chain 1 N64Q] | 0.64
